Test results published in article PMC10466376.

Assays:
Assay in all cases: potentiometry
[1] = target: Cterm15 (position 15, SKGHFH-----); conditions: 298 K; 0.1 M NaClO4; none (4 mM HClO4 / 100 mM NaClO4); metal-free peptide, 0.5 mM, disordered
[2] = target: Glu3 (position 3, ---KQEGRDHD); conditions: 298 K; 0.1 M NaClO4; none (4 mM HClO4 / 100 mM NaClO4); metal-free peptide, 0.5 mM, disordered
[3] = target: Lys1 (position 1, -----KQEGRD); conditions: 298 K; 0.1 M NaClO4; none (4 mM HClO4 / 100 mM NaClO4); Zn(II)-bound peptide, mononuclear complex, Zn:peptide 1:1 (supplement captions state 0.9:1), peptide 0.5 mM
Lys11 (position 11, …-) = conditions: 298 K; 0.1 M NaClO4; none (4 mM HClO4 / 100 mM NaClO4); Zn(II)-bound peptide, mononuclear complex, Zn:peptide 1:1 (supplement captions state 0.9:1), peptide 0.5 mM
Lys9 (position 9, …) = conditions: 298 K; 0.1 M NaClO4; none (4 mM HClO4 / 100 mM NaClO4); Zn(II)-bound peptide, mononuclear complex, Zn:peptide 1:1 (supplement captions state 0.9:1), peptide 0.5 mM
[4] = target: Nterm1 (position 1, -----KQEGRD); conditions: 298 K, 0.1 M NaClO4, none (4 mM HClO4 / 100 mM NaClO4)
[5] = target: Cterm29 (position 29, KGGKAH-----); conditions: 298 K; 0.1 M NaClO4; none (4 mM HClO4 / 100 mM NaClO4); metal-free peptide, 0.5 mM, disordered
Glu5 (position 5, -…) = conditions: 298 K; 0.1 M NaClO4; none (4 mM HClO4 / 100 mM NaClO4); metal-free peptide, 0.5 mM, disordered
[6] = target: Nterm1 (position 1, -----HNKQEG); conditions: 298 K; 0.1 M NaClO4; none (4 mM HClO4 / 100 mM NaClO4); metal-free peptide, 0.5 mM, disordered
[7] = metal-free peptide, 0.5 mM, disordered

B1: Sg-15, 15-residue fragment common to semenogelin I and semenogelin II (Homo sapiens) (peptide)
chain: KQEGRDHDKSKGHFH
[1]
  pKa: 2.34
[2]
  pKa: 4.36
[3]
  pKa: 9.52
Lys11 (position 11, …-)
  pKa: 10.59
Lys9 (position 9, …)
  pKa: 10.40
[4]; Cu(II)-bound peptide, mononuclear complex, Cu:peptide 1:1 (supplement captions state 0.9:1), peptide 0.5 mM
  pKa: 6.82
[4]; Zn(II)-bound peptide, mononuclear complex, Zn:peptide 1:1 (supplement captions state 0.9:1), peptide 0.5 mM
  pKa: 6.88
[4]; [7]
  pKa: 7.58

B2: SgIIA (SgII peptide A), 29-residue fragment of semenogelin II (Homo sapiens) (peptide)
chain: KQEGRDHDKSKGHFHMIVIHHKGGQAHHG
[2]
  pKa: 4.26
[4]; [7]
  pKa: 9.47

B3: SgI-29, 29-residue fragment of semenogelin I (Homo sapiens) (peptide)
chain: HNKQEGRDHDKSKGHFHRVVIHHKGGKAH
[5]
  pKa: 2.18
Glu5 (position 5, -…)
  pKa: 3.74
[6]
  pKa: 9.45
